{"source": "paper PMC3874162", "about": "(Nucleic Acids Research, 2013)", "key": {"Cdc13-MOB": {"target": "T1, Cdc13-MOB (Saccharomyces cerevisiae, UniProt P32797 344-496)", "T1 sequence": "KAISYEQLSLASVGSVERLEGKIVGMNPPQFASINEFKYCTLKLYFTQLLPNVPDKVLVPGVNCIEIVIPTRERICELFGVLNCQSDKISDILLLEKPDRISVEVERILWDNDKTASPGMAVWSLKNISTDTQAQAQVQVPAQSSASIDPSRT"}, "Cdc13-DBD": {"target": "T2, Cdc13-DBD (Saccharomyces cerevisiae, UniProt P32797 497-694)", "T2 sequence": "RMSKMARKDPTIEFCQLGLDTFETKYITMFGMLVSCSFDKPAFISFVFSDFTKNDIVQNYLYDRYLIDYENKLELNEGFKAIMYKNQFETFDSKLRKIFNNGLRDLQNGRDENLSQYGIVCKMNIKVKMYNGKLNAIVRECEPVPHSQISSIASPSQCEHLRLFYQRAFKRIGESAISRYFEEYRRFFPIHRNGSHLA", "assay": "filter binding"}}}
{"binder": "GTGTGGGTGTG (ssDNA)", "note": "[Tel11]", "values": [{"measurement": "binding result", "setting": "Cdc13-MOB", "value": "no binding"}, {"measurement": "Kd", "setting": "Cdc13-DBD", "value": "0.21 ± 0.02", "unit": "nM"}]}
